Where a chain is given by its changes, count along the chain named. Names may count otherwise.
T1: ShPPase (Family II inorganic pyrophosphatase from Shewanella sp. AS-11) (Shewanella sp. AS-11, UniProt L8AXY8)
T1 construct: gene ppia; recombinant from pET16b in E. coli BL21(DE3); purified as previously described
T1 sequence (L8AXY8 2-308): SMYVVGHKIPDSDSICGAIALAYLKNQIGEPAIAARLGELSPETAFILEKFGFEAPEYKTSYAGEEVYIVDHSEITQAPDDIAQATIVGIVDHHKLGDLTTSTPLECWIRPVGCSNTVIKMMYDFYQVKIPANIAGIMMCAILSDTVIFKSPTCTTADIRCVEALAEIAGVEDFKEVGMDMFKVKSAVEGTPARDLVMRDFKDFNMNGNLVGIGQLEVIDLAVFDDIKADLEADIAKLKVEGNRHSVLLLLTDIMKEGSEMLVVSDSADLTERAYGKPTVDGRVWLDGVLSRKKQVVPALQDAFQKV

B1: ShPPase (Family II inorganic pyrophosphatase from Shewanella sp. AS-11) (Shewanella sp. AS-11) (protein)
chain: T1 sequence (L8AXY8 2-308)
notes: recombinant from pET16b in E. coli BL21(DE3); purified as previously described
B2: ShPPase (Family II inorganic pyrophosphatase from Shewanella sp. AS-11) (Shewanella sp. AS-11; D14N) (protein)
chain: T1 sequence (L8AXY8 2-308) with D13N
notes: as for B1
B3: ShPPase (Family II inorganic pyrophosphatase from Shewanella sp. AS-11) (Shewanella sp. AS-11; D14A) (protein)
chain: T1 sequence (L8AXY8 2-308) with D13A
notes: as for B1

Key:
[1] = target: T1, ShPPase (Family II inorganic pyrophosphatase from Shewanella sp. AS-11); assay: Zn K-edge XANES / EXAFS; format: binding; conditions: Zn2+-ShPPase 1.1 mM, 0.1 M PNP, 0.1 M MgCl2, pH 7.5; active site, trinuclear metal center
[2] = substrate: O=P(O)(O)OP(=O)(O)O; assay: molybdenum blue phosphate release; format: biochemical, Shewanella sp. AS-11; conditions: Zn2+-activated enzyme, 5 mM MgCl2, 50 mM KCl, 100 mM Tris-HCl pH 7.5, 25 °C
Description: molybdenum blue phosphate release on ShPPase (Family II inorganic pyrophosphatase from Shewanella sp. AS-11)

[3] = primers for D14N and D14A appear exchanged

Molecule	Zn K-edge XANES / EXAFS [1]	Km [2] [µM]	kcat [2] [s⁻¹]	kcat/Km [2] [M⁻¹ s⁻¹]	Km [2, 3] [µM]	kcat [2, 3] [s⁻¹]	kcat/Km [2, 3] [M⁻¹ s⁻¹]
O=P(O)(O)NP(=O)(O)O [PNP, imidodiphosphate]	Zn²⁺ ions are predominantly five-coordinate in the substrate-free form, but transition to six-coordinate upon PNP binding	–	–	–	–	–	–
B1	–	79 ± 18	99.8 ± 5.5	1.26e+06	–	–	–
B2	–	–	–	–	100 ± 20	0.034 ± 0.002	340
B3	–	179 ± 37	0.019 ± 0.001	110	–	–	–

— publication PMC13219714, “μ₃-Oxo nucleophile formation enables efficient SN2 hydrolysis at the trinuclear metal center in inorganic pyrophosphatase” (Communications Chemistry, 2026)
